Assay results as given in article PMC5730846.

Target: recombinant Hsp90α (human) (UniProt P07900)

inhibition of Hsp90α ATPase activity in vitro (PiPer Phosphate Assay) by 100 nM Tsc1-D: 72%
B1: Tsc1-D-His6 (domain or fragment)
chain: DGCSDSMVGHNEEASGHNGETKTPRPSSARGSSGSRGGGGSSSSSSELSTPEKPPHQRAGPFSSRWETTMGEASASIPTTVGSLPSSKSFLGMKARELFRNKSESQCDEDGMTSSLSESLKTELGKDLGVEAKIPLNLDGPHPSPPTPDSVGQLHIMDYNETHHEHS
